What was measured:
yeast hexokinase (HK) = target: T1, yeast hexokinase (HK) (Saccharomyces cerevisiae, UniProt P04807); experiment: coupled G6PDH assay, NADH formation; format: biochemical; conditions: inhibition by product; 0.15-20 mM ADP, 30 °C, pH 7.5
T1 construct: gene HXK2; commercial preparation containing predominantly the PII isoform (HXK2); may contain some PI
T1 sequence (P04807 2-486): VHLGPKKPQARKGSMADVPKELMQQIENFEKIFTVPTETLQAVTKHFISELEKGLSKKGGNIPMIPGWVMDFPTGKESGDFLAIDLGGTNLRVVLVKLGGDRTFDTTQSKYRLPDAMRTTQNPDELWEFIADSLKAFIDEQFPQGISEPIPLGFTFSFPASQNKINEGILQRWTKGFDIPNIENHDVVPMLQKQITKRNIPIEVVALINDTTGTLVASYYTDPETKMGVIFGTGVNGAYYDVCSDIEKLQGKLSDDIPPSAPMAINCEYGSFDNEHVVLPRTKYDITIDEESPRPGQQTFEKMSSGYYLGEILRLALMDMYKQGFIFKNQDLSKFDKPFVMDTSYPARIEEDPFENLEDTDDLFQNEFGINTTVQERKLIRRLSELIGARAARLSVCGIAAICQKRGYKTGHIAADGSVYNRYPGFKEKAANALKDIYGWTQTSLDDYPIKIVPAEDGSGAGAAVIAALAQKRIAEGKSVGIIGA

[1] = substrate: Nc1ncnc2c1ncn2[C@@H]1O[C@H](COP(=O)(O)OP(=O)(O)OP(=O)(O)O)[C@@H](O)[C@H]1O; experiment: coupled G6PDH assay, NADH formation; format: biochemical, Saccharomyces cerevisiae; conditions: 200 mM glucose, 10 mM MgCl2, 50 mM sodium phosphate pH 7.5, 30 °C
Text: coupled G6PDH assay, NADH formation on yeast hexokinase (HK)

[2] = substrate: Nc1ncnc2c1ncn2[C@@H]1O[C@H](COP(=O)(O)OP(=O)(O)O)[C@@H](O)[C@H]1O; experiment: luciferase ATP determination assay; format: biochemical, Pseudomonas aeruginosa; conditions: 0-20 mM ADP, 10 mM sodium polyphosphate (Graham's salt), 10 mM MgCl2, sodium phosphate pH 7.5, 30 °C

Molecule: Nc1ncnc2c1ncn2[C@@H]1O[C@H](COP(=O)(O)OP(=O)(O)O)[C@@H](O)[C@H]1O [ADP]
- relative activity (yeast hexokinase (HK)): ADP lowered the reaction even at small concentrations.

B1: yeast hexokinase (HK) (Saccharomyces cerevisiae S288C) (protein)
chain: T1 sequence (P04807 2-486)
notes: commercial preparation containing predominantly the PII isoform (HXK2); may contain some PI
- Km [1]: 1107 ± 74 µM
- Vmax [1]: 33 µM/min

B2: PPK2 (Pseudomonas aeruginosa PAO1) (protein)
chain: MDSYGDTSGRIGRDWLDRHDEELEQELLDDELNLDELFGPEQEDAPGELSRRRYFRELFRLQRELVKLQNWVVHTGHKVVILFEGRDAAGKGGVIKRITQRLNPRVCRVAALPAPNDREQTQWYFQRYVSHLPAGGEIVLFDRSWYNRAGVERVMGFCNDEQYEEFFRSVPEFEKMLARSGIQLLKYWFSISDAEQHLRFLSRIHDPLKQWKLSPMDLESRRRWEAYTKAKETMLERTHIPEAPWWVVQADDKKRARLNCIHHLLQQMPYREVPQPPVHLPERLRHADYVRHPTPGEIIVPEVY
notes: about 39 kDa; E. coli BL21 (DE3)
- Km [2]: 23 ± 5.9 µM

Reference: article PMC8206812 (Frontiers in Bioengineering and Biotechnology, 2021)
